According to patent US20140255415A1 (Novartis, published 2014):

Columns and labels:
[1] = target: Unrelated Fc; assay: ELISA, Fc fusion captured via goat anti-human IgG Fc, Fab detected with AP-conjugated secondary and AttoPhos
[2] = target: T1, human LINGO-2 expressed on CHO-K1 cells (CHO-K1-hLINGO-2) (human, UniProt Q7L985 26-606); assay: apparent KD, FACS saturation binding on CHO-K1-hLINGO-2 cells, Fab format
T1 construct: range 26-606; not shown: 2 amino acid residue linker
T1 sequence (looked up): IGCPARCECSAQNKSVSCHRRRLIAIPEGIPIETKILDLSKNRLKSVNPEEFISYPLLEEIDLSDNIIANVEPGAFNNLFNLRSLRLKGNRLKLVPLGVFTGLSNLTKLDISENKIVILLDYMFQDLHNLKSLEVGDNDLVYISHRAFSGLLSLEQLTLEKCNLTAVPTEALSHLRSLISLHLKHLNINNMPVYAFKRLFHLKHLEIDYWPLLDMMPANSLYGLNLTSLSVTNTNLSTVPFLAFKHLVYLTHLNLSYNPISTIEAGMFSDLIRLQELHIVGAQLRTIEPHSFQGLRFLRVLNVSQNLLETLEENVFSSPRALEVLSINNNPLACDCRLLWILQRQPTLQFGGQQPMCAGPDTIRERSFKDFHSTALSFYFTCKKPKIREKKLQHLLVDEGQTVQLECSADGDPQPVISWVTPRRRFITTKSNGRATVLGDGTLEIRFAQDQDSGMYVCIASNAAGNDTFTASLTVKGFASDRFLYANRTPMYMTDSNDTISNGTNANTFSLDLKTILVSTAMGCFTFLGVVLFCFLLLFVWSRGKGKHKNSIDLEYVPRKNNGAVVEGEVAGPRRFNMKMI

[3] = target: human LINGO-1 expressed on CHO-K1 cells (CHO-K1-hLINGO-1) (human) (UniProt Q96FE5); assay: apparent KD, FACS saturation binding on CHO-K1-hLINGO-1 cells, Fab format
[4] = target: T2, cynomolgus monkey LINGO-1 expressed on CHO-K1 cells (CHO-K1-cmLINGO-1) (cynomolgus monkey, UniProt Q9N008 34-614); assay: apparent KD, FACS saturation binding on CHO-K1-cmLINGO-1 cells, Fab format
T2 construct: range 34-614; also called Cynomolgus LINGO-1; not shown: 2 amino acid residue linker
T2 sequence (looked up): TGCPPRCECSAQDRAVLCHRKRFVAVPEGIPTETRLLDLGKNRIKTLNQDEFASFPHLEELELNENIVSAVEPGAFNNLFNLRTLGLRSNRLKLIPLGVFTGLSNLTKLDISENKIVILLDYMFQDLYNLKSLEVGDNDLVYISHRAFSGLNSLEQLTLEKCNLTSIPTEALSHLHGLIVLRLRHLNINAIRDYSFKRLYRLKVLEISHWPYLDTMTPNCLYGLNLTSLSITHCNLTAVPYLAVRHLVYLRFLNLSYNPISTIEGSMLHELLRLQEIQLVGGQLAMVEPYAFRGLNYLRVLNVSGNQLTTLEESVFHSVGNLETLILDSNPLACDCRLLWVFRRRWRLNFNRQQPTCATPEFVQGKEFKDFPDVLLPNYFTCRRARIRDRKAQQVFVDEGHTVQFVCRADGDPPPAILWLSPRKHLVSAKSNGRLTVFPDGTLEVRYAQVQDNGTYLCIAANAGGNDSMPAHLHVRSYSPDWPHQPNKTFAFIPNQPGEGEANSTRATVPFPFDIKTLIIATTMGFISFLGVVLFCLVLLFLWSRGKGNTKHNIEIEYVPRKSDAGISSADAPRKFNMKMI
Experimental: Cell based affinity of anti-LINGO-1 specific antibodies is determined by FACS saturation binding experiments. […] Otherwise the staining procedure is done identical to the FACS staining procedure described above.
In detail, CHO-K1-hLINGO-1, CHO-K1-cmLINGO-1 or CHO-K1-rLINGO-1 are detached from culture flasks by versene, washed with FACS buffer and resuspended in FACS buffer. Purified anti-LINGO-1 Fabs are serially diluted in FACS buffer and spread into round bottom 96-well microtiter plates (NUNC™, Wiesbaden, Germany). For each concentration, duplicate wells are incubated with 1.25×10⁴ cells for 30-60 min on ice in a total volume of 100 μl.

[5] = target: T3, human NgR-Fc fusion protein (R&D Systems) (human, UniProt Q9BZR6 27-447, limits assumed); assay: ELISA, captured Fc fusion protein
T3 construct: Commercial protein; also called captured human NgR-Fc; not shown: Fc part of the commercial fusion protein; not described
T3 sequence (looked up): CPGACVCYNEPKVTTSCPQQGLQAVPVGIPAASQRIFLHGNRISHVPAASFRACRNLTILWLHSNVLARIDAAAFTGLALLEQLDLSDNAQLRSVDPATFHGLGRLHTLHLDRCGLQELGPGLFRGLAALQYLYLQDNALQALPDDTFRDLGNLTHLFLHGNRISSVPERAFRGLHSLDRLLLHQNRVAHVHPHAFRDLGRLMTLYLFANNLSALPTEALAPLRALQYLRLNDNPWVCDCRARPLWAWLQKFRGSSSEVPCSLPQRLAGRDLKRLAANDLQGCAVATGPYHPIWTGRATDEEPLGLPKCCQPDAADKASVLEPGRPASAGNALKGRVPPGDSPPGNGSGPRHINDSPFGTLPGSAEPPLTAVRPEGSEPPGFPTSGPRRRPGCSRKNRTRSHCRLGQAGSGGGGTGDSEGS

[6] = target: T4, human LINGO-1-ΔLRR-Fc (Igleader-hsLINGO-1-ΔLRR-Fc) (human, UniProt Q96FE5 40-556); assay: ELISA, captured Fc fusion protein
T4 construct: Heterologous secretion signal left out; also called human LINGO-1 lacking the LRR domain
T4 sequence: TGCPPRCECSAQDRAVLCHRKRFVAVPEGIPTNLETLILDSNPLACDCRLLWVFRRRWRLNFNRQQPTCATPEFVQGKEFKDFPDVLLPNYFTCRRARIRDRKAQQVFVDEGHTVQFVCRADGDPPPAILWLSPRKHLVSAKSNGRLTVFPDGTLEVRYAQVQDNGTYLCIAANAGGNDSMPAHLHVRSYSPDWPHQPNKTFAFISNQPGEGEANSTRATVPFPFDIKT

B1: anti-LINGO-1 Fab 4785 (Fab, V domains shown)
VH: QVQLQQSGPGLVKPSQTLSLTCAISGDSVSDNSAAWSWIRQSPGRGLEWLGLIYLRSKWDNDYAVSVKSRITINPDTSKNQFSLQLNSVTPEDTAVYYCARTGRADEFDVWGQGTLVTVSS
VL: DIVLTQPPSVSGAPGQRVTISCSGSSSNIGNNYVSWYQQLPGTAPKLLISRNSKRPSGVPDRFSGSKSGTSASLAITGLQSEDEADYYCSTYDTFSIVFGGGTKLTVLG
For B1, the relative fluorescence units (RFU) [1] was 6 RFU, the Kd [2] was 1.21 nM and the Kd [3] was 0.35 nM. The Kd [4] was 0.26 nM, the binding result [5] was “no binding” and the binding result [6] was “no binding”.
